According to ChEMBL document CHEMBL3526030, “Transport of the coumarin metabolite 7-hydroxycoumarin glucuronide is mediated via multidrug resistance-associated proteins 3 and 4” (Drug Metab Dispos, 2012):

Key:
[1] = substrate: O=C(O)[C@H]1O[C@@H](Oc2ccc3ccc(=O)oc3c2)[C@H](O)[C@@H](O)[C@@H]1O; experiment: Activity at MRP4 (unknown origin) expressed in baculovirus-infected HEK293 cells assessed as drug transport after 10 mins by Michaelis-Menten plot analysis; assay type: ADME, Homo sapiens
[2] = substrate: O=C(O)[C@H]1O[C@@H](Oc2ccc3ccc(=O)oc3c2)[C@H](O)[C@@H](O)[C@@H]1O; experiment: Activity at MRP3 (unknown origin) expressed in baculovirus-infected HEK293 cells assessed as drug transport after 10 mins by Michaelis-Menten plot analysis; assay type: ADME, Homo sapiens

| Protein | Km [1] [µM] | Vmax [1] [µmol/min/mg] | Km [2] [µM] | Vmax [2] [µmol/min/mg] |
| --- | --- | --- | --- | --- |
| ATP-binding cassette sub-family C member 4 (Homo sapiens) (protein) MLPVYQEVKPNPLQDANLCSRVFFWWLNPLFKIGHKRRLEEDDMYSVLPEDRSQHLGEELQGFWDKEVLRAENDAQKPSLTRAIIKCYWKSYLVLGIFTLIEESAKVIQPIFLGKIINYFENYDPMDSVALNTAYAYATVLTFCTLILAILHHLYFYHVQCAGMRLRVAMCHMIYRKALRLSNMAMGKTTTGQIVNLLSNDVNKFDQVTVFLHFLWAGPLQAIAVTALLWMEIGISCLAGMAVLIILLPLQSCFGKLFSSLRSKTATFTDARIRTMNEVITGIRIIKMYAWEKSFSNLITNLRKKEISKILRSSCLRGMNLASFFSASKIIVFVTFTTYVLLGSVITASRVFVAVTLYGAVRLTVTLFFPSAIERVSEAIVSIRRIQTFLLLDEISQRNRQLPSDGKKMVHVQDFTAFWDKASETPTLQGLSFTVRPGELLAVVGPVGAGKSSLLSAVLGELAPSHGLVSVHGRIAYVSQQPWVFSGTLRSNILFGKKYEKERYEKVIKACALKKDLQLLEDGDLTVIGDRGTTLSGGQKARVNLARAVYQDADIYLLDDPLSAVDAEVSRHLFELCICQILHEKITILVTHQLQYLKAASQILILKDGKMVQKGTYTEFLKSGIDFGSLLKKDNEESEQPPVPGTPTLRNRTFSESSVWSQQSSRPSLKDGALESQDTENVPVTLSEENRSEGKVGFQAYKNYFRAGAHWIVFIFLILLNTAAQVAYVLQDWWLSYWANKQSMLNVTVNGGGNVTEKLDLNWYLGIYSGLTVATVLFGIARSLLVFYVLVNSSQTLHNKMFESILKAPVLFFDRNPIGRILNRFSKDIGHLDDLLPLTFLDFIQTLLQVVGVVSVAVAVIPWIAIPLVPLGIIFIFLRRYFLETSRDVKRLESTTRSPVFSHLSSSLQGLWTIRAYKAEERCQELFDAHQDLHSEAWFLFLTTSRWFAVRLDAICAMFVIIVAFGSLILAKTLDAGQVGLALSYALTLMGMFQWCVRQSAEVENMMISVERVIEYTDLEKEAPWEYQKRPPPAWPHEGVIIFDNVNFMYSPGGPLVLKHLTALIKSQEKVGIVGRTGAGKSSLISALFRLSEPEGKIWIDKILTTEIGLHDLRKKMSIIPQEPVLFTGTMRKNLDPFNEHTDEELWNALQEVQLKETIEDLPGKMDTELAESGSNFSVGQRQLVCLARAILRKNQILIIDEATANVDPRTDELIQKKIREKFAHCTVLTIAHRLNTIIDSDKIMVLDSGRLKEYDEPYVLLQNKESLFYKMVQQLGKAEAAALTETAKQVYFKRNYPHIGHTDHMVTNTSNGQPSTLTIFETAL | 63 | 0.00092 | – | – |
| ATP-binding cassette sub-family C member 3 (Homo sapiens) (protein) MDALCGSGELGSKFWDSNLSVHTENPDLTPCFQNSLLAWVPCIYLWVALPCYLLYLRHHCRGYIILSHLSKLKMVLGVLLWCVSWADLFYSFHGLVHGRAPAPVFFVTPLVVGVTMLLATLLIQYERLQGVQSSGVLIIFWFLCVVCAIVPFRSKILLAKAEGEISDPFRFTTFYIHFALVLSALILACFREKPPFFSAKNVDPNPYPETSAGFLSRLFFWWFTKMAIYGYRHPLEEKDLWSLKEEDRSQMVVQQLLEAWRKQEKQTARHKASAAPGKNASGEDEVLLGARPRPRKPSFLKALLATFGSSFLISACFKLIQDLLSFINPQLLSILIRFISNPMAPSWWGFLVAGLMFLCSMMQSLILQHYYHYIFVTGVKFRTGIMGVIYRKALVITNSVKRASTVGEIVNLMSVDAQRFMDLAPFLNLLWSAPLQIILAIYFLWQNLGPSVLAGVAFMVLLIPLNGAVAVKMRAFQVKQMKLKDSRIKLMSEILNGIKVLKLYAWEPSFLKQVEGIRQGELQLLRTAAYLHTTTTFTWMCSPFLVTLITLWVYVYVDPNNVLDAEKAFVSVSLFNILRLPLNMLPQLISNLTQASVSLKRIQQFLSQEELDPQSVERKTISPGYAITIHSGTFTWAQDLPPTLHSLDIQVPKGALVAVVGPVGCGKSSLVSALLGEMEKLEGKVHMKGSVAYVPQQAWIQNCTLQENVLFGKALNPKRYQQTLEACALLADLEMLPGGDQTEIGEKGINLSGGQRQRVSLARAVYSDADIFLLDDPLSAVDSHVAKHIFDHVIGPEGVLAGKTRVLVTHGISFLPQTDFIIVLADGQVSEMGPYPALLQRNGSFANFLCNYAPDEDQGHLEDSWTALEGAEDKEALLIEDTLSNHTDLTDNDPVTYVVQKQFMRQLSALSSDGEGQGRPVPRRHLGPSEKVQVTEAKADGALTQEEKAAIGTVELSVFWDYAKAVGLCTTLAICLLYVGQSAAAIGANVWLSAWTNDAMADSRQNNTSLRLGVYAALGILQGFLVMLAAMAMAAGGIQAARVLHQALLHNKIRSPQSFFDTTPSGRILNCFSKDIYVVDEVLAPVILMLLNSFFNAISTLVVIMASTPLFTVVILPLAVLYTLVQRFYAATSRQLKRLESVSRSPIYSHFSETVTGASVIRAYNRSRDFEIISDTKVDANQRSCYPYIISNRWLSIGVEFVGNCVVLFAALFAVIGRSSLNPGLVGLSVSYSLQVTFALNWMIRMMSDLESNIVAVERVKEYSKTETEAPWVVEGSRPPEGWPPRGEVEFRNYSVRYRPGLDLVLRDLSLHVHGGEKVGIVGRTGAGKSSMTLCLFRILEAAKGEIRIDGLNVADIGLHDLRSQLTIIPQDPILFSGTLRMNLDPFGSYSEEDIWWALELSHLHTFVSSQPAGLDFQCSEGGENLSVGQRQLVCLARALLRKSRILVLDEATAAIDLETDNLIQATIRTQFDTCTVLTIAHRLNTIMDYTRVLVLDKGVVAEFDSPANLIAARGIFYGMARDAGLA | – | – | 187 | 0.00046 |
